Holding throughout (assay): two-hybrid; yeast strains L40 or PJ69-4A; β-galactosidase quantitative liquid assays, fold activation with respect to the empty vector, at least four independent protein extracts
Test [1] has as its target Cno NH, LexA bait fusion (Drosophila).
The target in test [2] is Cno-MP, LexA bait fusion (Drosophila) (UniProt Q24279).
Test [3] concerns the target DSH-FLN, LexA bait fusion (Drosophila) (UniProt P51140).
Chain of UniProt P51140 (P51140 whole entry, the tested form may be a part): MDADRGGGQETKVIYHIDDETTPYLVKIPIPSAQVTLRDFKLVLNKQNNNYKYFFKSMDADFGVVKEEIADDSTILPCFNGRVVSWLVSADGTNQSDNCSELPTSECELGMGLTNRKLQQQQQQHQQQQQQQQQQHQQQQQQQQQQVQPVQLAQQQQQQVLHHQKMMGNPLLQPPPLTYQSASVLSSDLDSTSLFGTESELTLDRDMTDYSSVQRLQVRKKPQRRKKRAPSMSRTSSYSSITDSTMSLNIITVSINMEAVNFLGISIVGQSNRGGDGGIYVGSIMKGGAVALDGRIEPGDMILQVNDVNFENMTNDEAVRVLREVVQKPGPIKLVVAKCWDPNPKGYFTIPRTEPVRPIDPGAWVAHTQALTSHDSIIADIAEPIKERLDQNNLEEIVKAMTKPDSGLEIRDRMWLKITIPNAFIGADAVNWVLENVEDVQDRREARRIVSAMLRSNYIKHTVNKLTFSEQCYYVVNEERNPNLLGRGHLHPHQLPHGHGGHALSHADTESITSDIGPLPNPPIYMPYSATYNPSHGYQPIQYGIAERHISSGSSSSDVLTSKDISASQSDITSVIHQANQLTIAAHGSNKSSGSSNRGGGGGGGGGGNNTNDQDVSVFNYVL

Chain of UniProt Q24279 (Q24279 entry or part of it): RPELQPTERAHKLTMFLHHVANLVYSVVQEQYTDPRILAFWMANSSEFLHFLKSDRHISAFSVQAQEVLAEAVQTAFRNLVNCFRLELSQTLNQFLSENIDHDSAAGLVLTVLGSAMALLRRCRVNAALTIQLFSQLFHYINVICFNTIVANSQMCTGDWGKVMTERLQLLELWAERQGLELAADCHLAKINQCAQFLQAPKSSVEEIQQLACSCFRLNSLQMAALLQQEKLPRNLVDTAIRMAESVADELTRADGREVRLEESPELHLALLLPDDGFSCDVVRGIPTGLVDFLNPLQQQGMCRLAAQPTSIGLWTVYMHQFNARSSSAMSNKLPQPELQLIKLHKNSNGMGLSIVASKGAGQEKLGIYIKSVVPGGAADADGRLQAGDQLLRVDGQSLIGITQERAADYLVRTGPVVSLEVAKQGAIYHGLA

On to “Notch-ICN1, prey fusion (domain or fragment)”, for which the fold activation (β-galactosidase, against the empty vector) (fold activation) in test [1] and in test [2] was 40 each time.

As to “Notch-ICN2, prey fusion (domain or fragment)”, the fold activation (β-galactosidase, against the empty vector) (fold activation) in test [1] came out at 20; in test [2], 20; in test [3] it was 3.

The record behind these values is article PMC1762375.
